# Measurements: publication doi:10.1101/728907 (bioRxiv, 2019)
# B1: Nanobody Nb23 specific to GFLV (VHH)
# VHH: QVQLQESGGGSVQVGGSLRVACAASGDTFSGYLAAWFRQAPGKGREGVAAINSKRHTTSYADSVKGRFTISKDNADNIMYLEMNSLKPEDTAIYYCAAADAIGLAEYWSTPTLSAARYKYWGQGTQVTVSS
# Molecular target: T1, GFLV-derived virus-like particles (VLP) in which enhanced GFP is encaged (Grapevine fanleaf virus, isolate not …)
# T1 chain: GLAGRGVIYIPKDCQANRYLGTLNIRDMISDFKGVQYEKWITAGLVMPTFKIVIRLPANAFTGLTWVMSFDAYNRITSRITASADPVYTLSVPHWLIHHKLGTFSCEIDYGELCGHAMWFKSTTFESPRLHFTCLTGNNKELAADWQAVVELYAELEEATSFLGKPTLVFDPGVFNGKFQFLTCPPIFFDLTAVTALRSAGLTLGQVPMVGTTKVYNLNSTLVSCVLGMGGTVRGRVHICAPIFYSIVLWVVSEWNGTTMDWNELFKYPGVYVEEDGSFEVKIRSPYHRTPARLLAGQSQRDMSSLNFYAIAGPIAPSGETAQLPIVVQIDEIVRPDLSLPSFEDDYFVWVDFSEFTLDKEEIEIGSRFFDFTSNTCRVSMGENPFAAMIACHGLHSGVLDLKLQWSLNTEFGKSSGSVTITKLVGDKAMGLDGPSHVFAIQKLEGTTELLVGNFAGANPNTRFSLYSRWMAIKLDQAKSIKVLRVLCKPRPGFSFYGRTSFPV
# Assay: MST
binder,measurement,value
B1,Kd,9.13 nM
